Experimental data reported in PMC6547453.

Legend:
[1] = molecular target: RspWYL1 double mutant I108D/I109D (Ruminococcus sp.); experiment: SEC; Superdex 200 gel filtration column, compared with a protein molecular mass standard mixture
[2] = molecular target: RspWYL1 double mutant Y386A/N387A (Ruminococcus sp.); experiment: as above
[3] = molecular target: full-length RspWYL1 (Ruminococcus sp. WYL1, amino acids 1–392) (Ruminococcus sp.); experiment: as above
[4] = molecular target: full-length RspWYL1 (Ruminococcus sp. WYL1, amino acids 1–392) (Ruminococcus sp.); experiment: SEC-MALS; HPLC SEC-MALS, AdvanceBio SEC 300A column, 50 mM Tris-HCl pH 7.5, 150 mM NaCl, 1 mM TCEP; RspWYL1 loaded at 10 mg/ml

RspWYL1 double mutant I108D/I109D (natural protein)
stoichiometry N [1]: 2

RspWYL1 double mutant Y386A/N387A (natural protein)
stoichiometry N [2]: 2

full-length RspWYL1 (Ruminococcus sp. WYL1, amino acids 1–392) (natural protein)
stoichiometry N [3]: 2
stoichiometry N [4]: 2
